According to patent publication US9486502B2, “Methods of administering interferon gamma to absorb fluid from the subretinal space” (The United States of America, as represented by the …, priority 2008, dated 2016):
“Also recorded” adds a separate entry of the source.

How the values were obtained:
rat RPE = assay: in vivo retinal re-attachment assay (OCT)
Description: All animal experiments were conducted in compliance with the ARVO Statement for the use of Animals in Ophthalmic and Vision Research, and the protocol was approved by the Animal Care and Use Committee of the National Institutes of Health. The procedures have been described in detail in Maminishkis, A., et al., Invest Ophthalmol Vis Sci, 2006, 47, 3612-3624, incorporated by reference in its entirety herein. Briefly, retinal detachments were created in long-Evans rats by injecting 0.5 to 3 μl of modified phosphate-buffered saline (MPBS) Ringer's solution into the sub-retinal space (SRS), which separates the photoreceptor outer segments and the apical membrane of the RPE. In the control portion of each experiment (at 0-70 minutes after creation of the retinal detachment), the rate of change of bleb volume was measured. The control period of “constant” volume was defined by JV≦2 μl hr cm over at least 40 minutes. Any control injections that exceeded this threshold rate were rejected from subsequent analysis.
IFNγ was dissolved in MPBS, mixed with Celluvisc® solution (1:1) and applied as eye-drops (0.4 mL). Optical coherence tomography (OCT) imaging (Institute of Applied Physics, Russian Academy of Science, Nizhniy Novgorod, Russia) was used to measure the time course of the detachment volume change.
A previously tested in vivo rodent model of retinal detachment was used to measure the effect of IFNγ on re-absorption following retinal detachment, as described in Example 11 and in Maminishkis, A., et al., Invest Ophthalmol Vis Sci, 2002, 43, 3555-3566, incorporated herein by reference in its entirety. Initial detachment was created by injecting approximately 1 μl of osmotically-balanced, modified phosphate-buffered saline (MPBS) Ringer's solution into the extracellular space, i.e. the sub-retinal space (SRS). After stabilization of the detachment, IFNγ (40 μl of 100 ng/ml) was added to the anterior surface of the eye via eye drops (Celluvisc®). A series of 3D OCT images were recorded at different time points.

hfRPE = assay: quantitative real-time PCR of gene expression in IFNγ-treated hfRPE; format: cell-based, human; settings: for Threshold Cycle (Ct) CFTR / Threshold Cycle (Ct) IFNGR1 / Threshold Cycle (Ct) IFNGR2 / Threshold Cycle (Ct) IRF-1 / Threshold Cycle (Ct) IRF-2 / Threshold Cycle (Ct) PIAS1 / Threshold Cycle (Ct) SOCS3 / Threshold Cycle (Ct) STAT1 / Threshold Cycle (Ct) NOS2A / Threshold Cycle (Ct) IRF-8: IFNγ 25 ng/ml
Description: qRT-PCR was performed as previously described in Li, R. et al., 2007, Invest Ophthalmol Vis Sci, 48, 5722-5732—incorporated by reference in its entirety herein. Confluent monolayers of hfRPE cultured in 24-well plates were treated with IFNγ (25 ng/ml) in SFM and harvested at 0 minutes, 30 minutes, 2 hours, 6 hours, 15 hours and 24 hours, in triplicate for each time point. 1 μg total mRNA isolated from the harvested cells (RNeasy Kit, Qiagen) was reverse-transcribed (SuperScript® III First-Strand Synthesis System for RT-PCR, Invitrogen). Real-time PCR (TagMan®, Applied Biosystems) was used to quantify expression of the interferon regulatory factors IRF-1, IRF-2, and IRF-8; signal transducer and activator of transcription 1 (STAT1); suppressor of cytokine signaling 3 (SOCS3); protein inhibitor of activated STAT1 (PIAS1); inducible nitric oxide synthase (NOS2A); IFNγ receptor subunit R1 (IFNGR1); IFNα receptor subunit R1 (IFNAR1); IFNγ receptor subunit R2 (IFNGR2); cystic fibrosis transmembrane conductance regulator (CFTR); and Glyceraldehyde 3-phosphate dehydrogenase (GAPDH). The mRNA concentration of each gene was normalized against GAPDH. qRT-PCR was performed on the ABI Sequence Detection System 7900 (Applied Biosystems).

B1: IFNγ: pleiotropic cytokine produced by T- and NK-cells; obtained from Peprotech (protein, UniProt P01579 24-161, looked up)
Interferon gamma: QDPYVKEAENLKKYFNAGHSDVADNGTLFLGILKNWKEESDRKIMQSQIVSFYFKLFKNFKDDQSIQKSVETIKEDMNVKFFNSNKKKRDDFEKLTNYSVTDLNVQRKAIHELIQVMAELSPAAKTGKRKRSQMLFRG
- JV (fluid transport rate out of the retinal detachment) (rat RPE; IFNγ eye drops on anterior surface, t=0 to 40 minutes, FIG. 23B/E): 12 μl·cm^−2·hr^−1
- time in which rate of fluid absorption from subretinal space was significantly increased (rat RPE; IFNγ on anterior surface of the eye): less than 30 minutes
- detachment size (volume) (rat RPE; IFNγ on anterior surface, 40 or 54 minutes): decrease in detachment size
- IRF-2 mRNA fold change (hfRPE; 25 ng/ml IFNγ, hfRPE): 3 fold
- up-regulation of IRF-1 transcription (hfRPE; 25 ng/ml IFNγ, hfRPE): > 400 fold
- up-regulation of STAT1 transcription (hfRPE; 25 ng/ml IFNγ, hfRPE): > 30 fold
- Threshold Cycle (Ct) CFTR (hfRPE; 0 hr): 38.0
- Threshold Cycle (Ct) IFNGR1 (hfRPE; 0 hr): 26.4
- Threshold Cycle (Ct) IFNGR2 (hfRPE; 0 hr): 26.0
- Threshold Cycle (Ct) IRF-1 (hfRPE; 0 hr): 31.1
- Threshold Cycle (Ct) IRF-2 (hfRPE; 0 hr): 27.6
- Threshold Cycle (Ct) PIAS1 (hfRPE; 0 hr): 27.0
- Threshold Cycle (Ct) SOCS3 (hfRPE; 0 hr): 26.9
- Threshold Cycle (Ct) STAT1 (hfRPE; 0 hr): 26.2
- Threshold Cycle (Ct) CFTR (hfRPE; 0.5 hr): 36.9
- Threshold Cycle (Ct) IFNGR1 (hfRPE; 0.5 hr): 26.4
- Threshold Cycle (Ct) IFNGR2 (hfRPE; 0.5 hr): 26.0
- Threshold Cycle (Ct) IRF-1 (hfRPE; 0.5 hr): 27.4
- Threshold Cycle (Ct) IRF-2 (hfRPE; 0.5 hr): 27.6
- Threshold Cycle (Ct) NOS2A (hfRPE; 0.5 hr): 39.1
- Threshold Cycle (Ct) PIAS1 (hfRPE; 0.5 hr): 26.9
- Threshold Cycle (Ct) SOCS3 (hfRPE; 0.5 hr): 25.4
- Threshold Cycle (Ct) STAT1 (hfRPE; 0.5 hr): 25.8
- Threshold Cycle (Ct) CFTR (hfRPE; 2 hr): 37.3
- Threshold Cycle (Ct) IFNGR1 (hfRPE; 2 hr): 26.4
- Threshold Cycle (Ct) IFNGR2 (hfRPE; 2 hr): 25.1
- Threshold Cycle (Ct) IRF-1 (hfRPE; 2 hr): 22.2
- Threshold Cycle (Ct) IRF-2 (hfRPE; 2 hr): 26.0
- Threshold Cycle (Ct) IRF-8 (hfRPE; 2 hr): 30.9
- Threshold Cycle (Ct) NOS2A (hfRPE; 2 hr): 35.9
- Threshold Cycle (Ct) PIAS1 (hfRPE; 2 hr): 27.2
- Threshold Cycle (Ct) SOCS3 (hfRPE; 2 hr): 24.6
- Threshold Cycle (Ct) STAT1 (hfRPE; 2 hr): 22.1
- Threshold Cycle (Ct) CFTR (hfRPE; 6 hr): 38.5
- Threshold Cycle (Ct) IFNGR1 (hfRPE; 6 hr): 26.3
- Threshold Cycle (Ct) IFNGR2 (hfRPE; 6 hr): 24.7
- Threshold Cycle (Ct) IRF-1 (hfRPE; 6 hr): 22.3
- Threshold Cycle (Ct) IRF-2 (hfRPE; 6 hr): 25.6
- Threshold Cycle (Ct) IRF-8 (hfRPE; 6 hr): 31.1
- Threshold Cycle (Ct) NOS2A (hfRPE; 6 hr): 31.6
- Threshold Cycle (Ct) PIAS1 (hfRPE; 6 hr): 27.1
- Threshold Cycle (Ct) SOCS3 (hfRPE; 6 hr): 24.0
- Threshold Cycle (Ct) STAT1 (hfRPE; 6 hr): 21.0
- Threshold Cycle (Ct) IFNGR1 (hfRPE; 15 hr): 26.5
- Threshold Cycle (Ct) IFNGR2 (hfRPE; 15 hr): 25.1
- Threshold Cycle (Ct) IRF-1 (hfRPE; 15 hr): 22.3
- Threshold Cycle (Ct) IRF-2 (hfRPE; 15 hr): 26.0
- Threshold Cycle (Ct) IRF-8 (hfRPE; 15 hr): 32.0
- Threshold Cycle (Ct) NOS2A (hfRPE; 15 hr): 32.7
- Threshold Cycle (Ct) PIAS1 (hfRPE; 15 hr): 26.8
- Threshold Cycle (Ct) SOCS3 (hfRPE; 15 hr): 24.8
- Threshold Cycle (Ct) STAT1 (hfRPE; 15 hr): 21.3
- Threshold Cycle (Ct) CFTR (hfRPE; 24 hr): 37.9
- Threshold Cycle (Ct) IFNGR1 (hfRPE; 24 hr): 26.3
- Threshold Cycle (Ct) IFNGR2 (hfRPE; 24 hr): 25.2
- Threshold Cycle (Ct) IRF-1 (hfRPE; 24 hr): 22.2
- Threshold Cycle (Ct) IRF-2 (hfRPE; 24 hr): 26.1
- Threshold Cycle (Ct) IRF-8 (hfRPE; 24 hr): 31.9
- Threshold Cycle (Ct) NOS2A (hfRPE; 24 hr): 33.5
- Threshold Cycle (Ct) PIAS1 (hfRPE; 24 hr): 26.7
- Threshold Cycle (Ct) SOCS3 (hfRPE; 24 hr): 24.9
- Threshold Cycle (Ct) STAT1 (hfRPE; 24 hr): 21.2
- SOCS3 mRNA levels (hfRPE; IFNγ-treated hfRPE): increased
- effect on CFTR mRNA expression (hfRPE; IFNγ-treated hfRPE): No effect; also recorded: small decrease
- effect on IFNGR1 expression (hfRPE; IFNγ-treated hfRPE): No effect
- effect on PIAS1 expression (hfRPE; IFNγ-treated hfRPE): No effect; also recorded: does not affect
- increase of SOCS3 mRNA (hfRPE; IFNγ-treated hfRPE): 7 fold
- IRF-8 mRNA detectability (hfRPE; after 2 hours of IFNγ, constitutive level under detection): became detectable
- increase in IFNGR2 expression (hfRPE; after 6 hours of IFNγ): ≈ 2 fold
- NOS2A expression (hfRPE; after 6 hours of IFNγ, constitutive levels undetectable): significantly up-regulated
